# Measurements published in patent publication US5126134A, “Pharmaceutically active combination” (Ciba-Geigy Corporation, priority 1988, dated 1992).
# How the values were obtained:
# [1] = tested on: 125I-fibrinogen labelled thrombi in the jugular vein; experiment: Rabbit jugular vein thrombosis model: enhancement of t-PA induced lysis; format: in vivo, New Zealand white rabbits; conditions: 0.5 mg t-PA infused i.v. over 3 hours, mean of n animals
# Procedure: The experiments are performed with New Zealand white rabbits (weighing 2.3-3.5 kg) anaesthesized by intravenous (marginal ear vein) injection of 30 mg/kg sodium pentobarbital. Through a paramedical incision of the neck, the jugular veins and the right carotid artery are exposed. The right carotid artery is cannulated with a 1.5 mm diameter polyethylene cannula for blood sampling. The two jugular veins are isolated, cleared over a distance of 2 cm, small side branches are ligated. Each jugular segment is emptied of blood and blood flow is temporarily occluded both proximally and distally by two angiostaths, 1.5 cm apart. A 10 cm length 3.0 TiCron braided polyester suture, presoaked in a collagen solution, is introduced lengthwise in the lumen of the isolated jugular vein for a distance of 4 cm to avoid the embolization of the thrombus to be produced. 150 μl of citrated rabbit blood containing 5 μl of ^125 I-fibrinogen (approx. 500 000 cpm) is then aspirated in a 1 ml tubercoline syringe containing 50 μl (5 I.U.) of thrombin and 10 μl of CaCl2 (0.25M). […] At the end of the infusion, the thrombi remaining in the vessel are removed and their size is determined by measuring the amount of residual ^125 I-labeled fibrinogen remaining in the thrombi and comparing the results with those of the saline controls.
# [2] = tested on: preformed non-radioactive thrombi in the jugular vein; experiment: Rabbit jugular vein thrombosis model: inhibition of thrombus accretion during thrombolysis with t-PA; format: in vivo, New Zealand white rabbits; conditions: FIG. 1; three hours infusion of t-PA alone or along with heparin (0.75 mg/kg)
# Procedure: The experiments are performed with New Zealand white rabbits (weighing 2.3-3.5 kg) anaesthesized by intravenous (marginal ear vein) injection of 30 mg/kg sodium pentobarbital. Through a paramedical incision of the neck, the jugular veins and the right carotid artery are exposed. The right carotid artery is cannulated with a 1.5 mm diameter polyethylene cannula for blood sampling. The two jugular veins are isolated, cleared over a distance of 2 cm, small side branches are ligated. Each jugular segment is emptied of blood and blood flow is temporarily occluded both proximally and distally by two angiostaths, 1.5 cm apart. A 10 cm length 3.0 TiCron braided polyester suture, presoaked in a collagen solution, is introduced lengthwise in the lumen of the isolated jugular vein for a distance of 4 cm to avoid the embolization of the thrombus to be produced. […] The effects of standard heparin and recombinant desulfato hirudin in preventing thrombus extension during thrombolysis with t-PA are assessed as their ability to inhibit the accretion of ^125 I-fibrinogen onto autologous non-radioactive thrombi preformed in the jugular vein of rabbits. […] The ratio of the radioactivity of the thrombus to the circulating fibrinogen radioactivity is used to quantify thrombus size, which is then expressed as μg or ^125 I-fibrinogen accreted onto the thrombus.
molecule,measurement,setting,value
"t-PA: tissue-type plasminogen activator derived from melanoma cell cultures (BioResponse); infused with saline (protein, UniProt P00750 36-562, looked up, melanoma cell derived, infused with saline) Tissue-type plasminogen …: SYQVICRDEKTQMIYQQHQSWLRPVLRSNRVEYCWCNSGRAQCHSVPVKSCSEPRCFNGGTCQQALYFSDFVCQCPEGFAGKCCEIDTRATCYEDQGISYRGTWSTAESGAECTNWNSSALAQKPYSGRRPDAIRLGLGNHNYCRNPDRDSKPWCYVFKAGKYSSEFCSTPACSEGNSDCYFGNGSAYRGTHSLTESGASCLPWNSMILIGKVYTAQNPSAQALGLGKHNYCRNPDGDAKPWCHVLKNRRLTWEYCDVPSCSTCGLRQYSQPQFRIKGGLFADIASHPWQAAIFAKHRRSPGERFLCGGILISSCWILSAAHCFQERFPPHHLTVILGRTYRVVPGEEEQKFEVEKYIVHKEFDDDTYDNDIALLQLKSDSSRCAQESSVVRTVCLPPADLQLPDWTECELSGYGKHEALSPFYSERLKEAHVRLYPSSRCTSQHLLNRTVTDNMLCAGDTRSGGPQANLHDACQGDSGGPLVCLNDGRMTLVGIISWGLGCGQKDVPGVYTKVTNYLDWIRDNMRP",% lysis,"[1]; First set of experiments, hirudin 1 mg/kg",44%
same,% lysis,"[1]; Second set of experiments, heparin 0.75 mg/kg",37%
same,125I-fibrinogen accreted onto the thrombus,[2],52 µg
